{
  "source": "the RNAGym collection of RNA variant scans (doi:10.7554/elife.90254)",
  "parents": {"B1": {"name": "LINE1-mini (parent)", "chain": "GGCAGAGCUCAACACAGCGUGGCAAAGUGGCUGUGGCUAGACUGCC"}},
  "data": [
    {"variants_of": "B1", "experiment": "self-cleavage, relative activity (ratio to wild type); higher = more cleavage; in vitro, sequencing; the parent is a self-cleaving ribozyme", "values": [
      {"variant": "GGCAGAGCUCAACACAGCGUGGCAAAGUGGCCGUGGCAAGACUGCC", "note": "[U32C U38A]", "self-cleavage": 0.37},
      {"variant": "GGCAGAGCUCAACACAGCGUGGCACAGCGGCUGUGGCUAGACUGCC", "note": "[A25C U28C]", "self-cleavage": 0.44},
      {"variant": "GGCAGAGCUCAACACAGCGUGGCAAAGAGGCUGUAGCUAGACUGCC", "note": "[U28A G35A]", "self-cleavage": 0.15},
      {"variant": "GGCAGAGCUCAACACAGCGUGGCAAAGUGGCUGAGGCUAGACCGCC", "note": "[U34A U43C]", "self-cleavage": 0.04},
      {"variant": "GGCAGAGCUCAACACAGCGUGGAAAAGUGGCUGGGGCUAGACUGCC", "note": "[C23A U34G]", "self-cleavage": 0.22},
      {"variant": "GGCAGAGCUCAACACGGCGUGGUAAAGUGGCUGUGGCUAGACUGCC", "note": "[A16G C23U]", "self-cleavage": 0.82},
      {"variant": "GGCAGAGCUCAACACAGCGUGGCAAAGUGGCUAUGGCUAGACUCCC", "note": "[G33A G44C]", "self-cleavage": 0.07},
      {"variant": "GGCAGAGCUGAUCACAGCGUGGCAAAGUGGCUGUGGCUAGACUGCC", "note": "[C10G A12U]", "self-cleavage": 0.03},
      {"variant": "GGCAGAGCUCAACAGAGCGUGGCAAAGUGGCUGUGGCUAGACUGCC", "note": "[C15G]", "self-cleavage": 0.07},
      {"variant": "GGCAGUGCUCAACACAGCGUGGCAAAGUGGCUGUGGCUAGGCUGCC", "note": "[A6U A41G]", "self-cleavage": 2.27},
      {"variant": "GGCAGAGCUCAACACAGCGUGGCAAAGUUGCUGUGGCUAAACUGCC", "note": "[G29U G40A]", "self-cleavage": 0.15},
      {"variant": "GGCAGAGCUCGACAGAGCGUGGCAAAGUGGCUGUGGCUAGACUGCC", "note": "[A11G C15G]", "self-cleavage": 0.03},
      {"variant": "GGCAGAGCUCAACACAACGUGGCAAAGUGGCUGUGGCUAGACUACC", "note": "[G17A G44A]", "self-cleavage": 0.04},
      {"variant": "GGCAGAGCUCAACACAGCGUGGCAAAGUAGCUGUGGCUAGACUGCU", "note": "[G29A C46U]", "self-cleavage": 0.82},
      {"variant": "GGCAGAGGUCAACACAGCGUGGCACAGUGGCUGUGGCUAGACUGCC", "note": "[C8G A25C]", "self-cleavage": 0.11},
      {"variant": "GGCAGAGCUCAACACAGCGUGGCAAAGUGGCUGUCUCUAGACUGCC", "note": "[G35C G36U]", "self-cleavage": 0.09},
      {"variant": "GGCAGAGCACAACACAGCUUGGCAAAGUGGCUGUGGCUAGACUGCC", "note": "[U9A G19U]", "self-cleavage": 0.08},
      {"variant": "GGCAGAGCUCAACACAGCGUGGAAAAGUGGCUGUGGCUAGAAUGCC", "note": "[C23A C42A]", "self-cleavage": 0.3},
      {"variant": "GGCAGAGCUCAACACAGCGUGGCAAAGUGGCUGUAGCUACACUGCC", "note": "[G35A G40C]", "self-cleavage": 0.08},
      {"variant": "GGCAGAGCUCAACACAGCGUGGCAAAGUGGCUGUGCCAAGACUGCC", "note": "[G36C U38A]", "self-cleavage": 0.06},
      {"variant": "GGCAGAGCUCAACACAGCGUGGCAAAGUGGCUGUGCCCAGACUGCC", "note": "[G36C U38C]", "self-cleavage": 0.05},
      {"variant": "GGCAGAGCUCAACACAGCAUGGCAUAGUGGCUGUGGCUAGACUGCC", "note": "[G19A A25U]", "self-cleavage": 1.66},
      {"variant": "GGCAGAGCUCAACACAGCGUGGCAAGGUGACUGUGGCUAGACUGCC", "note": "[A26G G30A]", "self-cleavage": 2.6},
      {"variant": "GGCAGACCUCAACACUGCGUGGCAAAGUGGCUGUGGCUAGACUGCC", "note": "[G7C A16U]", "self-cleavage": 0.3},
      {"variant": "GGCAGAGCUCAACCCAGCGUGGCAAAGUGGCUGUGCCUAGACUGCC", "note": "[A14C G36C]", "self-cleavage": 0.02},
      {"variant": "GCCAUAGCUCAACACAGCGUGGCAAAGUGGCUGUGGCUAGACUGCC", "note": "[G2C G5U]", "self-cleavage": 0.03},
      {"variant": "GGCAGAGCUCAACACAGCGUGGCAAAGCGGCUGUGGCUAGACUGAC", "note": "[U28C C45A]", "self-cleavage": 1.7},
      {"variant": "GGCAGAGCUCAAGACAGCCUGGCAAAGUGGCUGUGGCUAGACUGCC", "note": "[C13G G19C]", "self-cleavage": 0.06},
      {"variant": "GGCAAAGCUCAACACAGCGCGGCAAAGUGGCUGUGGCUAGACUGCC", "note": "[G5A U20C]", "self-cleavage": 0.06},
      {"variant": "GGCAGAGCUCAACACAGCGUGGCAAUGUGGCUUUGGCUAGACUGCC", "note": "[A26U G33U]", "self-cleavage": 0.08},
      {"variant": "GUCAGAGCUCAACACAGCAUGGCAAAGUGGCUGUGGCUAGACUGCC", "note": "[G2U G19A]", "self-cleavage": 0.08},
      {"variant": "GGCAGAGCUCAACAUAGCGUGGCAAAGUGGCUGUGGCUAGACUGCA", "note": "[C15U C46A]", "self-cleavage": 0.92},
      {"variant": "GGCAGAGCUCAACACAGCGUGGGAAAGUGGCUUUGGCUAGACUGCC", "note": "[C23G G33U]", "self-cleavage": 0.16},
      {"variant": "GGCAGAGCUCAACACAGUGUGGGAAAGUGGCUGUGGCUAGACUGCC", "note": "[C18U C23G]", "self-cleavage": 1.56},
      {"variant": "GGCAGAGCCCAACACAGCGUGGCAAAGUGGAUGUGGCUAGACUGCC", "note": "[U9C C31A]", "self-cleavage": 0.02},
      {"variant": "GGCAGAGCUUAACAGAGCGUGGCAAAGUGGCUGUGGCUAGACUGCC", "note": "[C10U C15G]", "self-cleavage": 0.05},
      {"variant": "GGCAGAGCUCAACACAUCGUGGCAAAGUGGCUGUGCCUAGACUGCC", "note": "[G17U G36C]", "self-cleavage": 0.09},
      {"variant": "GGCAUAGCUCAACACAGCGUGGCAUAGUGGCUGUGGCUAGACUGCC", "note": "[G5U A25U]", "self-cleavage": 0.08},
      {"variant": "GGCAGAACUCAACACAGCGUGGUAAAGUGGCUGUGGCUAGACUGCC", "note": "[G7A C23U]", "self-cleavage": 0.11},
      {"variant": "GGCAGAGCUCAACACAGCUUGGCAAAGUGGCUGUGGCUGGACUGCC", "note": "[G19U A39G]", "self-cleavage": 0.06},
      {"variant": "GGCAGAGCUCAGCACAGCGUGGCAAAGUGGCUGUGGCAAGACUGCC", "note": "[A12G U38A]", "self-cleavage": 0.06},
      {"variant": "GGCGGAGCUCAAAACAGCGUGGCAAAGUGGCUGUGGCUAGACUGCC", "note": "[A4G C13A]", "self-cleavage": 0.27},
      {"variant": "GGCAGAGCUCAACACAGCGUGGCAAAGUGGCUGUGGCUUGACUGCG", "note": "[A39U C46G]", "self-cleavage": 0.5},
      {"variant": "GGAAGAGCUCAACACAGCGUGGCAAAGUGGCUGUGGCUAGACUCCC", "note": "[C3A G44C]", "self-cleavage": 0.86},
      {"variant": "GGCAGAGCUUAACACAGCGUGUCAAAGUGGCUGUGGCUAGACUGCC", "note": "[C10U G22U]", "self-cleavage": 0.42},
      {"variant": "GGCAGAGCUCAACACUGCGUGGCAAAGUGGCAGUGGCUAGACUGCC", "note": "[A16U U32A]", "self-cleavage": 0.55},
      {"variant": "GGCAGAGCUGAACACAGCGUGGCAAAGUGGCUAUGGCUAGACUGCC", "note": "[C10G G33A]", "self-cleavage": 0.03},
      {"variant": "GGCAGAGCCCAACACAGCGUGGCAAAGUGGCAGUGGCUAGACUGCC", "note": "[U9C U32A]", "self-cleavage": 0.02},
      {"variant": "GGCAGAGCUCAACACAGCGUGGCAAAGUUGCUGUGGCUAGACUGCC", "note": "[G29U]", "self-cleavage": 1.09},
      {"variant": "GGCAGAGCUCAACACAGCGUGGCACAGUGGCUGUAGCUAGACUGCC", "note": "[A25C G35A]", "self-cleavage": 0.11},
      {"variant": "GGCAGAGCUUAACACAGCGUGGCAAAGUGGCUGUCGCUAGACUGCC", "note": "[C10U G35C]", "self-cleavage": 0.04},
      {"variant": "GGCAGAGCUCAACACAGCAUGGCAAAGUGGCUGUGGCUAGGCUGCC", "note": "[G19A A41G]", "self-cleavage": 0.29},
      {"variant": "GGCAGUGCUCAAUACAGCGUGGCAAAGUGGCUGUGGCUAGACUGCC", "note": "[A6U C13U]", "self-cleavage": 0.11},
      {"variant": "GGCAGACCUCAACACAGCGUGGCACAGUGGCUGUGGCUAGACUGCC", "note": "[G7C A25C]", "self-cleavage": 0.14},
      {"variant": "GGCAGAGCUCAAGACAGCGUGGCAAAGUGACUGUGGCUAGACUGCC", "note": "[C13G G30A]", "self-cleavage": 0.15},
      {"variant": "GGCAGAGCUCAACACAGCCUGGCAAAGUGGCUGUGGCUAGAUUGCC", "note": "[G19C C42U]", "self-cleavage": 0.25}
    ]}
  ]
}
